These results are taken from patent publication US20060134122A1, “Peptides of syndecan-1 for inhibition of cancer” (priority 2004, published 2006).

In assay [1] the test system is MDA-MB-435 human mammary carcinoma cells. The assay is described as follows: Cell spreading assay, MDA-MB-435. Format: cell-based. The settings on record: 2 h, GST-mS1ED 20 μM; for cell spreading on VN: 10 μg/mL VN, LM609 30 μg/mL. The method, then:
FIGS. 2A-C—Sdc-1 adhesion-mediated cell spreading correlates with αvβ3 integrin. expression and activity. (FIG. 2A) FACS analysis of αvβ3 integrin expression (mAb LM609) in human mammary carcinoma cells against an IgG isotype control. (FIG. 2B) Depicted on split panels are phalloidin-stained MDA-MB-435 (upper half) and MCF-7 (lower half) cells 2 h after plating on wells coated with mAb B-B4 in plating medium alone or medium containing either 30 μg/mL mAb LM609, 1 μg/mL mAb 13 or 20 μM GST-mS1ED. Bar, 50 μm. (FIG. 2C) Untreated MDA-MB-435, MDA-MB-231 and MCF-7 cells (columns 1 and 4) and cells pretreated in suspension with 1 μg/mL mAb 13 (columns 2 and 3) were seeded on wells coated with either mAb B-B4 or COL I in plating medium alone (columns 1, 2 and 4) or medium containing 20 μM GST-mS1ED (column 3). Cells were incubated at 37° C. for 2 h, fixed, permeabilized and stained with WOW1 and an Alexa 488-conjugated secondary. Panel insets are corresponding phase contrast pictures. Bar, 20 μm.
FIG. 3—MDA-MB-435, but not MCF-7, human carcinoma cells display functional coupling of Sdc-1 and αvβ3 integrins on VN. Depicted are phalloidin-stained cells 2 h after plating on wells coated with 10 μg/mL VN (upper half) or FN (lower half) in plating medium alone or medium containing either 30 μg/mL mAb LM609, 25 μg/mL mAb 13, 20 μM GST-mS1ED or -mS4ED. Bar, 50 μm.
Sdc-1 adhesion-mediated cell spreading correlates with αvβ3 integrin expression and activity. To test whether the αvβ3 integrin's dependence on Sdc-1 extends to other carcinoma cells, the inventors screened a panel of human carcinoma cells with mAb LM609 using FACS analysis. […] To test the collaboration between Sdc-1 and αvβ3 integrin when cells are adherent via Sdc-1, MDA-MB-435 and MCF-7 cells were plated on wells coated with hS1-specific mAb B-B4. While αvβ3-positive MDA-MB-435 cells spread on this antibody substratum, their spreading is blocked (similar to results obtained in the MDA-MB-231; Beauvais and Rapraeger, 2003) by treatment with either mAb LM609 (added either before plating or 30 min after plating, when cells have already begun to spread) or GST-mS1ED protein (which is not recognized by mAb B-B4).
MDA-MB-435, but not MCF-7, human carcinoma cells display functional coupling of Sdc-1 and αvβ3 integrin on VN. To test whether activation of αvβ3 integrin activation on matrix is also functionally coupled to Sdc-1, MDA-MB-435 and MCF-7 cells were plated on either VN or FN (FIG. 3). MDA-MB-435 cells spread on VN and require αvβ3 integrins for this activity as spreading is blocked by mAb LM609. […]

Another assay has as its system B82L fibroblasts. The assay is described as follows: B82L cell attachment and spreading. The format is cell-based, mouse. As to conditions: for cell attachment and spreading on VN: 5 μg/mL VN, S1ED 1-30 μM, GST and GST-mS4ED 30 μM. The source says: FIGS. 11A-F—Downregulation of mouse Sdc-1 expression by siRNA blocks αvβ5-dependent cell attachment and spreading on VN. FACS analysis for (FIG. 11A) mouse syndecan-1 (mAb 281.2), (FIG. 11B) αv integrin subunit (mAb H9.2B8), (FIG. 11C) mouse Syndecan-4 (mAb KY8.2), (FIG. 11D) human syndecan-1 (mAb B-B4) and (FIG. 11E) FcR^ecto-hS1 chimera (FITC-conjugated hIgG) expression against isotype IgG controls (red-fill) in vector^NEO (FIGS. 11A-C), human syndecan-1 (FIG. 11D) and FcR^ecto-hS1 (FIG. 11E) expressing B82L cells 48 h after transfection with either 600 nM control (Control) or mouse syndecan-1-specific siRNA (siRNA). (FIG. 11F) B82L^NEO empty vector-transfected control cells and B82L cells expressing human syndecan-1 or the FcR^ecto-hS1 chimera were transfected with control or mouse syndecan-1-specific siRNA and seeded on wells coated with either 5 μg/mL VN alone or a mixed substratum of VN plus 60 μg/mL of antibody directed against mouse syndecan-1 (281.2), human syndecan-1 (B-B4) or the FcR^ecto-hS1 chimera (hIgG). Cells were incubated at 37° C. for 2 h, fixed, and stained with rhodamine-conjugated phalloidin.
FIGS. 12A-B—B82L cell spreading on VN is blocked by recombinant Scd-1ED. (FIG. 12A) B82L fibroblasts were plated on 5 μg/mL VN in the absence of other treatment, or in the presence of 30 μM GST, 1-30 μM GST-mS1ED or 30 μM GST-mS4ED (inset), then fixed and stained with rhodamine-phalloidin for visualization. (FIG. 12B) Quantification of cell adhesion in triplicate samples (±S.E.) plated either with no additions, or concentrations of GST-mS1ED ranging from 0-30 μM. […]
The failure of NEO cells to engage the mixed substratum is indicative of the efficient blockade of mouse Sdc-1 expression by the siRNA. It is unlikely that the mouse Sdc-1-siRNA treatment has any non-specific cellular effects since spreading on VN is specifically rescued by the expression of full-length human Sdc-1 (hS1, FIG. 11F). Spreading of the B82L-hS1 cells is indistinguishable from parental cells. However, spreading on VN is not recovered in cells expressing the FcR^ecto-hS1 chimera—a construct in which the syndecan's ectodomain is replaced by the ectodomain of the human Fcγ receptor Ia (FcR^ecto-hS1)—regardless of whether the cells are plated on VN alone, or VN supplemented with 60 μg/mL of hIgG to engage the FcR^ecto-hS1 construct.
Recombinant Sdc-1 ectodomain competitively blocks αvβ5 integin activity. To test whether soluble Sdc-1 ectodomain will compete with the syndecan activation of the αvβ5 integrin, B82L cells were plated on 5 μg/mL VN in the presence of a recombinant GST fusion protein containing either the ectodomain of mouse Sdc-1 (GST-mS1ED) or human Sdc-1 (GST-hS1ED; data not shown).

B1: GST-mS4ED: recombinant GST fusion of mouse syndecan-4 ectodomain, specificity control (protein)
chain: ESIRETEVIDPQDLLEGRYFSGALPDDEDAGGSDDFELSGSGDLDDTEEPRPFPEVIEPLVPLDNHIPENAQPGIRVPSEPKELEENEVIPKRAPSDVGDDMSNKVSMSSTAQGSNIFERTE
modifications: left off: a dimerising Fc or GST
notes: recombinant GST fusion of mouse syndecan-4 ectodomain, specificity control
Take B1: the “cell spreading on VN” value in assay [1] is “no effect”. Moreover, the “cell attachment and spreading on VN” value in the assay on B82L fibroblasts is “without effect”.

B2: GST-mS1ED: recombinant mouse syndecan-1 ectodomain expressed as a fusion protein with GST (protein)
chain: QIVAVNVPPEDQDGSGDDSDNFSGSGTGALPDTLSRQTPSTWKDVWLLTATPTAPEPTSSNTETAFTSVLPAGEKPEEGEPVLHVEAEPGFTARDKEKEVTTRPRETVQLPITQRASTVRVTTAQAAVTSHPHGGMQPGLHETSAPTAPGQPDHQPPRVEGGGTSVIKEVVEDGTANQLPAGEGSGEQDFTFETSGENTAVAAVEPGLRNQPPVDEGATGASQSLLDRKEVLG
modifications: left off: a dimerising Fc or GST
notes: recombinant mouse syndecan-1 ectodomain expressed as a fusion protein with GST
Consider B2, for which the “cell spreading on FN” value in assay [1] (10 μg/mL FN, mAb 13 25 μg/mL) is “retain their ability to spread”. The “cell spreading on VN” value in assay [1] was “fail to spread”. Also, in assay [1] (LM609 30 μg/mL (before or 30 min after plating)), the “cell spreading on mAb B-B4” value was “blocked”. In the assay on B82L fibroblasts, the “cell attachment and spreading on VN” value is reported as “increasing blockade”. The “lowest concentration tested at which competition occurs” value in the assay with B82L fibroblasts (cells plated on 5 μg/mL VN) came out at 1 µM.
